Experimental data: patent publication US20190389956A1 (INSTITUTE OF BIOPHYSICS CHINESE ACADEMY OF SCIENCES, published 2019)

T1: human IFNAR1 truncation lacking extracellular SD1, fused with GFP, expressed on HEK293T cells (human, UniProt P17181 28-457)
T1 construct: domain: extracellular and transmembrane domains lacking SD1 (32-126); Made from pEGFP-humanIFNAR1EC by overlap PCR; transiently expressed on HEK293T cells; also called R1-Δ1; RI-Δ1; not shown: C-terminal GFP (with linker) from the pEGFP vector
T1 sequence (looked up): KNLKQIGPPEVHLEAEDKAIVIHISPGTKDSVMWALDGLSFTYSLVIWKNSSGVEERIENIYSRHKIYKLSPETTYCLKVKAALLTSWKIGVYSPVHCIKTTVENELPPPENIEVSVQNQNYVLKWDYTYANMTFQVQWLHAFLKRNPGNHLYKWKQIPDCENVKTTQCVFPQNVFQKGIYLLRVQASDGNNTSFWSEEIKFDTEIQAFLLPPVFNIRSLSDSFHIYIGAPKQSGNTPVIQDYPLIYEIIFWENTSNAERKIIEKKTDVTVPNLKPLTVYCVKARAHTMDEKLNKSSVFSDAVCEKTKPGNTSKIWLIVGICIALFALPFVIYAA

T2: human IFNAR1 extracellular and transmembrane domains fused with GFP, expressed on HEK293T cells … (human, UniProt P17181 28-457)
T2 construct: domain: extracellular domains and transmembrane domains; the intracellular domain is replaced by GFP; also called R1-WT; HEK293T cells stably expressing IFNAR1; not shown: C-terminal GFP (with linker) from the pEGFP vector
T2 sequence (looked up): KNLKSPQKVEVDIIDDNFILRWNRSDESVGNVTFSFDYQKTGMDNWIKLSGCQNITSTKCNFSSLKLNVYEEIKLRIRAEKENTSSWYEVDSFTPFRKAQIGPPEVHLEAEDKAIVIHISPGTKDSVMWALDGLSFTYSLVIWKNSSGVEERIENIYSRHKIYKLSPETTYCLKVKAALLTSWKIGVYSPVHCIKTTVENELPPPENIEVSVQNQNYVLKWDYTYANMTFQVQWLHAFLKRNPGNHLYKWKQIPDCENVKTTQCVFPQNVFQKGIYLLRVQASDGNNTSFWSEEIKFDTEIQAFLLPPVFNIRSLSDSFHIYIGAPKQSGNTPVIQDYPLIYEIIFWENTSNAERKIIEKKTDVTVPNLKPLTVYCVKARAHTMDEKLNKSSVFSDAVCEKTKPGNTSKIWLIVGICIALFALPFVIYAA


Legend:
[1] = biological target: T1, human IFNAR1 truncation lacking …; assay: flow cytometry on transfected HEK293T cells, PE anti-mouse IgG
[2] = biological target: T2, human IFNAR1 extracellular and …; assay: flow cytometry screening on HEK293T cells expressing human IFNAR1 extracellular domain-GFP
Excerpt: Hybridoma secreting IFNAR1 antibody can be screened by analyzing GFP and PE signals of cells by flow cytometry. Monoclonal IgG antibodies of each well were screened by a reporter cell line stably expressing the extracellular domain of IFNAR1. Once extensive hybridoma growth occurs, hybridoma cells are usually screened after 10-14 days. Hybridoma cells secreting IFNAR1 antibody are subcloned by limited dilution method and were screened again. If still positive for human IFNAR1, then the monoclonal antibody is subcloned at least twice by limited dilution. Then the stable subclones are cultured in vitro, and a small amount of antibodies are produced in tissue culture medium for characterization.
The day before screening, 100 μL supernatant was aspirated from 96-well cell culture plate into a 96-well U bottom plate. 100 μL fresh 1×HAT RPMI medium was added to the original well for continued culture. HEK293T cells stably expressing IFNAR1 were harvested and were subsequently added to a 96-well U-bottom plate at a density of 10,000 cells/200 μL/well. After centrifugation at 2200 rpm for 3 min, the supernatant was discarded and the cell pellet was collected and re-suspended with 100 μL hybridoma supernatant at 4° C. for 30 min. […] Finally, the re-suspended cells were analyzed using a flow cytometer Guava (Millipore) for cellular GFP and PE signal. […]

binding result [2]	Binder	binding result [1]
binds	mouse anti-human IFNAR1 monoclonal antibody 10C2 (antibody, V domains shown, Mouse monoclonal IgG from a hybridoma, detected with anti-mouse IgG; also called antibody secreted by hybridoma cell line 10C2 (CGMCC No. 12542)) VH: QIQLVQSGPELKKPGETVKISCKASGYTFTNYGMNWVKQAPGKGLKWMGWINTYTGEPTYSDDFKGRFAFSLETSASTANLQINNLKDEDAATYFCAREGAIYYGDYVYFGVWGAGTTVTVSS VL: DIVMTQSQKFMSTSVGDRVSITCKASQNVGTAVAWYQEKPGQSPKLLIYSASNRYTGVPDRFTGSGSGTAFTLTISNMQSEDLADYFCQQYYNYPLTFGAGTKLEVKR	no binding (tested: 5 µg/ml (methods of Example 2))
binds	mouse anti-human IFNAR1 monoclonal antibody 10C9 (antibody, V domains shown, Mouse monoclonal IgG from a hybridoma, detected with anti-mouse IgG; also called antibody secreted by hybridoma cell line 10C9 (CGMCC No. 12543)) VH: QIQLVQSGPELKKPGETVKISCKASGYTFTNYGVNWMKQAPGKGLKWMGWINTYTGEPTYADDFKGRFAFSLETSASTAYLQINNLKNEDTATYFCAREGVYYYGDWAWLAYWGQGTLVTVSA VL: DIVMTQSQKFISTSVGDRVSVTCKASQNVGTNVAWYQQKPGQSPKTLIYSTSYRYNGVPDRFTGSGSGTDFTLTISNVQSEDLAEYFCQQYNSYYTFGGGTKLEIK	no binding (tested: 5 µg/ml (methods of Example 2))
